Data from the supplement of paper PMC11196671.

How the values were obtained:
[1] = MHET released, HPLC; higher = more MHET released; extreme values may be limits of the assay; conditions: 24 h
Experimental: (§1)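 Purified PET hydrolases, 2.5 ug enzyme on 3.5 mg amorphous PET film (aFilm) or crystalline PET powder (cryPow) in 0.5 mL of 50 mM buffer (NaCitrate pH 4.5/5.5, NaPhosphate 6.5/7.5, glycine 8.5/9.5) at 60 or 70 C with shaking for 24 h. Total aromatic product by UV-Vis (260/280 nm, blank-subtracted, normalised per mg enzyme) and individual TPA, MHET, BHET concentrations by UHPLC-DAD at 240 nm; duplicate reactions.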

[2] = BHET released, HPLC; higher = more BHET released; extreme values may be limits of the assay; conditions: 24 h
Experimental: as §1

[3] = PET hydrolysis product formed (TPA+MHET+BHET, UV-Vis) per mg enzyme (mmol/mg enzyme); higher = more PET depolymerisation activity; extreme values may be limits of the assay; conditions: 24 h
Experimental: as §1

[4] = as above; conditions: 2 h
Experimental: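 Purified PET hydrolases (His-SUMO cleaved, E. coli C41(DE3) small-scale expression), 2.5 ug enzyme on 3.5 mg amorphous PET film (aFilm) or crystalline PET powder (cryPow) in 0.5 mL of 50 mM buffer (NaCitrate pH 4.5/5.5, NaPhosphate 6.5/7.5, glycine 8.5/9.5) at 60 or 70 C with shaking for 2 h. Soluble aromatic products (TPA+MHET+BHET) were quantified by UV-Vis at 260/280 nm, blank-subtracted against the no-enzyme control, and normalised per mg enzyme; duplicate reactions.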

SNPYQRGPNPTRSALTADGPFSVRTYTISRLSVSGFGGGVIYYPTGTSLTFGGIAMSPGYTADASSLAWLGRRLASHGFVVLVINTNSRFDGPDSRASQLSAALNYLRTSSPSAVRARLDANRLAVAGHSMGGGGTLRIAEQNPSLKAAVPLTPWHTDKTFNTSVPVLIVGAEADTVAPVSQHAIPFYQNLPSTTPKVYVELCNASHIAPNSPNAAISVYTISWMKLWVDNDTRYRQFLCNVNDPALCDFRTNNRHCQ [LCC-ICCG RIP]
Conditions	BHET released, [2] [mM]	MHET released, [1] [mM]	PET hydrolysis product formed, [3]	PET hydrolysis product formed, [4]
PET substrate: aFilm, 60 °C, pH 4.5	0.00297	0.0627	0.029	0
PET substrate: aFilm, 60 °C, pH 5.5	0.00225	0.19	0.0802	0.0147
PET substrate: aFilm, 60 °C, pH 6.5	0	0.477	0.202	0.0276
PET substrate: aFilm, 60 °C, pH 7.5	0.0189	1.93	0.775	0.0697
PET substrate: aFilm, 60 °C, pH 8.5	0.00205	0.309	0.127	0.0326
PET substrate: aFilm, 60 °C, pH 9.5	0.0202	1.34	0.684	0.0672
PET substrate: aFilm, 70 °C, pH 4.5	0	0.00485	0	0
PET substrate: aFilm, 70 °C, pH 5.5	0.00382	0.23	0.103	0.0525
PET substrate: aFilm, 70 °C, pH 6.5	0	0.352	0.181	0.0606
PET substrate: aFilm, 70 °C, pH 7.5	0.0465	2.36	1.26	0.151
PET substrate: aFilm, 70 °C, pH 8.5	0	0.217	0.1	0.0612
PET substrate: aFilm, 70 °C, pH 9.5	0	0.896	0.65	0.175
PET substrate: cryPow, 60 °C, pH 4.5	0.00464	0.0685	0.0235	0.011
PET substrate: cryPow, 60 °C, pH 5.5	0	0.1986	0.0628	0.0235
PET substrate: cryPow, 60 °C, pH 6.5	0	0.257	0.082	0.0304
PET substrate: cryPow, 60 °C, pH 7.5	0	0.292	0.113	0.0711
PET substrate: cryPow, 60 °C, pH 8.5	0	0.186	0.0714	0.0405
PET substrate: cryPow, 60 °C, pH 9.5	0	0.0905	0.0784	0.0143
PET substrate: cryPow, 70 °C, pH 4.5	0	0.0111	0	0
PET substrate: cryPow, 70 °C, pH 5.5	0.00217	0.10965	0.0369	0.0166
PET substrate: cryPow, 70 °C, pH 6.5	0	0.2013	0.0809	0.0257
PET substrate: cryPow, 70 °C, pH 7.5	0	0.367	0.162	0.045
PET substrate: cryPow, 70 °C, pH 8.5	0	0.164	0.0631	0.0206
PET substrate: cryPow, 70 °C, pH 9.5	0	0.0678	0.0938	0.0257

SNPYQRGPNPTRSALTATGPFSVATYTVSRLLVSGFGGGVIYYPTGTSLTFGGIAMSPGYTADASSLAWLGRRLASHGFVVLVINTNSRFDGPDSRARQLSAALNYLRTSSPSAVRARLDANRLAVAGHSMGGGGTLRIAEQNPSLKAAVPLTPWHPDKTFNTSVPVLIVGAQADTVAPVSQHAIPFYQNLPSTTPKVYVELCNASHIAPNSPNAAISVYTISWMKLWVDNDTRYRQFLCNVNDPALCDFRTNNRHCQ [LCC-ICCG I6M]
Conditions	BHET released, [2] [mM]	MHET released, [1] [mM]	PET hydrolysis product formed, [3]	PET hydrolysis product formed, [4]
PET substrate: aFilm, 60 °C, pH 4.5	0	0.067	0.0326	0
PET substrate: aFilm, 60 °C, pH 5.5	0.00212	0.339	0.147	0.0198
PET substrate: aFilm, 60 °C, pH 6.5	0	0.534	0.223	0.0378
PET substrate: aFilm, 60 °C, pH 7.5	0.0371	3.6	1.32	0.0723
PET substrate: aFilm, 60 °C, pH 8.5	0.00219	0.333	0.169	0.0336
PET substrate: aFilm, 60 °C, pH 9.5	0	1.14	0.577	0.0585
PET substrate: aFilm, 70 °C, pH 4.5	0	0	0	0
PET substrate: aFilm, 70 °C, pH 5.5	0.00615	0.236	0.105	0.0242
PET substrate: aFilm, 70 °C, pH 6.5	0	0.211	0.0963	0.057
PET substrate: aFilm, 70 °C, pH 7.5	0	1.51	0.788	0.149
PET substrate: aFilm, 70 °C, pH 8.5	0	0.164	0.0775	0.021
PET substrate: aFilm, 70 °C, pH 9.5	0	0.409	0.402	0.0849
PET substrate: cryPow, 60 °C, pH 4.5	0.00411	0.0591	0.01995	0.0118
PET substrate: cryPow, 60 °C, pH 5.5	0	0.178	0.0583	0.031
PET substrate: cryPow, 60 °C, pH 6.5	0	0.22	0.0726	0.0457
PET substrate: cryPow, 60 °C, pH 7.5	0	0.206	0.0808	0.035
PET substrate: cryPow, 60 °C, pH 8.5	0	0.113	0.0461	0.0317
PET substrate: cryPow, 60 °C, pH 9.5	0	0.0594	0.0598	0.0174
PET substrate: cryPow, 70 °C, pH 4.5	0	0	0	0
PET substrate: cryPow, 70 °C, pH 5.5	0	0.0931	0.0302	0.0164
PET substrate: cryPow, 70 °C, pH 6.5	0	0.136	0.05	0.0289
PET substrate: cryPow, 70 °C, pH 7.5	0	0.275	0.122	0.0329
PET substrate: cryPow, 70 °C, pH 8.5	0	0.13	0.0495	0.0203
PET substrate: cryPow, 70 °C, pH 9.5	0	0.0223	0.0468	0.0239
